# Assay results from the RNAGym collection of RNA variant scans (doi:10.1021/acssynbio.7b00057).
# B1: Pistol ribozyme (parent)
# chain: GGGUCGUUGUUCCAUAAUCGCGUGGAUAUGGCACGCAAGUUUCUACCGGGCACCGUAAAUGUCCGACUGGAGCCGUUCGGGCGGCUAUAAACAGACCUCAGGCCCGAAGCGUGGCGGCACCUGCCGCCGGUGGUAAAAAAGAUCGGAAGAGCACACGUCU
# Variants of: B1
# Assay: aptazyme ON/OFF ratio, guanine; higher = stronger switching; co-transcriptional cleavage with and without guanine
row,Variant,aptazyme ON/OFF ratio
1,U7G U8C G9C U11G C12U C13A,1.3
2,U7G U8C G9U C12G C13U,1.32
3,U7G U8C G9U C12G C13G,1.32
4,U7G U8C G9U C12G C13A,1.18
5,U7G U8C G9C U10C U11G C12U C13A,1.08
6,U7G U8C G9C U10C U11G C12U C13G,1.08
7,U7G U8C G9C U10C U11G C12U C13U,1.08
8,U7G U8C G9C U11G C12A,1.39
9,U7G U8C G9C U11G C12G,1.07
10,U7G U8C G9C U11G C12U,1.66
11,U7G U8C G9C U10G U11G C13U,1.06
12,U7G U8C G9C U10G U11G C13A,1.1
13,U7G U8C G9C U10G U11G C13G,1.12
14,U7G U8C G9C U10A U11C C12U C13G,1.3
15,U7G U8C G9C U10A U11C C12U C13U,1.09
16,U7G U8C G9C U10A U11C C12U C13A,1.36
17,U7G U8C G9C U11C C12A C13G,1.21
18,U7G U8C G9C U11C C12A C13A,1.11
19,U7G U8C G9C U11C C12A C13U,1.53
20,U7G U8C G9C U10C C13U,1.15
21,U7G U8C G9C U10C C13G,1.21

row,Variant,aptazyme ON/OFF ratio
1,U7G U8C G9C U10C C13A,1.06
2,U7G U8C G9C U10A U11A C12A,1.19
3,U7G U8C G9C U10A U11A C12U,1.16
4,U7G U8C G9C U10A U11A C12G,1.19
5,U7G U8C G9A U11A C12A C13U,1.11
6,U7G U8C G9A U11A C12A C13G,1.07
7,U7G U8C G9A U11A C12A C13A,1.08
8,U7G U8C G9C U10C U11G C12A C13A,1.19
9,U7G U8C G9C U10C U11G C12A C13G,1.09
10,U7G U8C G9C U10C U11G C12A C13U,1.1
11,U7G U8C G9A U11G C13A,1.14
12,U7G U8C G9A U11G C13G,1.09
13,U7G U8C G9A U11G C13U,1.19
14,U7G U8C G9C U10G U11A C12G C13A,1.07
15,U7G U8C G9C U10G U11A C12G C13U,1.1
16,U7G U8C G9C U10G U11A C12G C13G,1.21
17,U7G U8C G9C U10C U11A C12G C13G,1.17
18,U7G U8C G9C U10C U11A C12G C13U,1.12
19,U7G U8C G9C U10C U11A C12G C13A,1.2
20,U7G U8C G9U,4.98
21,U7G U8C G9C,1.35

row,Variant,aptazyme ON/OFF ratio
1,U7G U8C G9C U10G U11A C12A C13U,1.25
2,U7G U8C G9C U10G U11A C12A C13G,1.11
3,U7G U8C G9C U10G U11A C12A C13A,1.1
4,U7G U8C G9A U11C C12U C13A,1.15
5,U7G U8C G9A U11C C12U C13U,1.08
6,U7G U8C G9A U11C C12U C13G,1.12
7,U7G U8C G9A U11G C12G C13U,1.05
8,U7G U8C G9A U11G C12G C13G,1.08
9,U7G U8C G9A U11G C12G C13A,1.07
10,U7G U8C G9C U10A U11A C12A C13A,1.12
11,U7G U8C G9C U10A U11A C12A C13U,1.11
12,U7G U8C G9C U10A U11A C12A C13G,1.09
13,U7G U8C G9C U10A U11C C12G C13U,1.31
14,U7G U8C G9C U10A U11C C12G C13G,1.14
15,U7G U8C G9C U10A U11C C12G C13A,1.33
16,U7G U8C G9A U10G U11G C12A,1.3
17,U7G U8C G9A U10G U11G C12G,1.27
18,U7G U8C G9A U10G U11G C12U,1.35
19,U7G U8C G9C C12U,1.28
20,U7G U8C G9C C12G,1.22
21,U7G U8C G9C C12A,1.12

row,Variant,aptazyme ON/OFF ratio
1,U7G U8C G9C U10C U11A C12U C13U,1.05
2,U7G U8C G9C U10C U11A C12U C13A,1.04
3,U7G U8C G9C U10C U11A C12U C13G,1.12
4,U7G U8C G9A U10G U11G C13A,1.31
5,U7G U8C G9A U10G U11G C13G,1.28
6,U7G U8C G9A U10G U11G C13U,1.38
7,U7G U8C G9C U11G C12A C13G,1.33
8,U7G U8C G9C U11G C12A C13U,1.23
9,U7G U8C G9C U11G C12A C13A,1.14
10,U7G U8C G9C U10A U11G C12A C13U,1.11
11,U7G U8C G9C U10A U11G C12A C13A,1.1
12,U7G U8C G9C U10A U11G C12A C13G,1.12
13,U7G U8C G9A U11C C12U,1.65
14,U7G U8C G9A U11C C12G,1.4
15,U7G U8C G9A U11C C12A,2
16,U7G U8C G9U C12A,1.35
17,U7G U8C G9U C12G,3.03
18,U7G U8C G9C U10G U11C C12A C13G,1.18
19,U7G U8C G9C U10G U11C C12A C13U,1.36
20,U7G U8C G9C U10G U11C C12A C13A,1.34
21,U7G U8C G9C U10A U11G C12U C13G,1.24
